Sequences and labels used below:
B1: DFFB (parent)
chain: TLVEAIKEQDGREVDWEYFYGLLF
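Note: lentivirally expressed fusions sorted by FACS into six bins by GFP to DsRed ratio, PSI derived from sequencing read proportions per bin multiplied by bin number.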

Variants of B1 are the subject of the data set. Put plainly: protein stability index of a GFP-peptide fusion (GPS, HEK-293T) (PSI 1-6); higher = more stable. As to conditions: c terminus: a fixed tail appended.
Regarding TLVEAIKEQDGREVFWEYFYGLLF, the protein stability index was determined as 1.93.

On to TLVEAIKEQDGREVTWEYFYGLLF, for which the protein stability index came out at 2.08. To TLVEAIKEQDGREVAWEYFYGLLF belongs 1.44. As for TLVEAIKEQDGREVIWEYFYGLLF, the figure is 2.15; as for TLVEAIKEQDGREVNWEYFYGLLF, 1.9.

Consider TLVEAIKEQDGREVMWEYFYGLLF, for which the protein stability index is 1.69. For the variant TLVEAIKEQDGREVPWEYFYGLLF, the protein stability index came to 2.2.

Regarding TLVEAIKEQDGREVWWEYFYGLLF, the protein stability index is 1.88.

TLVEAIKEQDGREVYWEYFYGLLF: the protein stability index is 1.19.

As for TLVEAIKEQDGREVQWEYFYGLLF, the protein stability index was determined as 1.78.

Consider TLVEAIKEQDGREVHWEYFYGLLF, for which the protein stability index is 1.51. As for TLVEAIKEQDGREVLWEYFYGLLF, the figure is 1.59; as for TLVEAIKEQDGREVCWEYFYGLLF, 1.9; as for TLVEAIKEQDGREVRWEYFYGLLF, 1.75. To TLVEAIKEQDGREVGWEYFYGLLF belongs 1.9; to TLVEAIKEQDGREVSWEYFYGLLF, 2.12. Turning to TLVEAIKEQDGREVEWEYFYGLLF, the protein stability index turned out to be 3.52. To TLVEAIKEQDGREVDWIYFYGLLF belongs 1.48; to TLVEAIKEQDGREVDWTYFYGLLF, 2.42; to TLVEAIKEQDGREVDWFYFYGLLF, 1.6. As for TLVEAIKEQDGREVDWVYFYGLLF, the figure is 2.24. As for TLVEAIKEQDGREVDWYYFYGLLF, the protein stability index came out at 1.67.

Take TLVEAIKEQDGREVDWLYFYGLLF: the protein stability index amounted to 2.18. As for TLVEAIKEQDGREVDWDYFYGLLF, the figure is 2.52; as for TLVEAIKEQDGREVDWRYFYGLLF, 2.46. TLVEAIKEQDGREVDWQYFYGLLF: the protein stability index came to 2.21. To TLVEAIKEQDGREVDWHYFYGLLF belongs 2.08; to TLVEAIKEQDGREVDWNYFYGLLF, 1.4; to TLVEAIKEQDGREVDWAYFYGLLF, 2.06.

On to TLVEAIKEQDGREVDWMYFYGLLF, for which the protein stability index was determined as 1.78.

Take TLVEAIKEQDGREVDWKYFYGLLF: the protein stability index came to 3.25. As for TLVEAIKEQDGREVDWPYFYGLLF, the figure is 1.33; as for TLVEAIKEQDGREVDWGYFYGLLF, 2.38. As for TLVEAIKEQDGREVDWEDFYGLLF, the figure is 2.16; as for TLVEAIKEQDGREVDWEMFYGLLF, 1.94; as for TLVEAIKEQDGREVDWEIFYGLLF, 2.06. As for TLVEAIKEQDGREVDWETFYGLLF, the figure is 1.9; as for TLVEAIKEQDGREVDWEAFYGLLF, 1.92. In the case of TLVEAIKEQDGREVDWEGFYGLLF, the protein stability index is 1.71.

In the case of TLVEAIKEQDGREVDWEVFYGLLF, the protein stability index amounted to 2.34. As for TLVEAIKEQDGREVDWESFYGLLF, the figure is 2.24; as for TLVEAIKEQDGREVDWELFYGLLF, 1.25. To TLVEAIKEQDGREVDWEQFYGLLF belongs 2.18; to TLVEAIKEQDGREVDWEWFYGLLF, 1.76; to TLVEAIKEQDGREVDWEFFYGLLF, 1.76.

On to TLVEAIKEQDGREVDWEHFYGLLF, for which the protein stability index was 3.81. On to TLVEAIKEQDGREVDWENFYGLLF, for which the protein stability index came to 2.44. To TLVEAIKEQDGREVDWERFYGLLF belongs 2.2. To TLVEAIKEQDGREVDWEYMYGLLF belongs 2.17; to TLVEAIKEQDGREVDWEYLYGLLF, 2.1. To TLVEAIKEQDGREVDWEYIYGLLF belongs 1.55; to TLVEAIKEQDGREVDWEYCYGLLF, 2.04. Take TLVEAIKEQDGREVDWEYYYGLLF: the protein stability index came out at 2.19. As for TLVEAIKEQDGREVDWEYWYGLLF, the figure is 2.39; as for TLVEAIKEQDGREVDWEYKYGLLF, 3.22.

As for TLVEAIKEQDGREVDWEYRYGLLF, the protein stability index stood at 2.31.

As to TLVEAIKEQDGREVDWEYDYGLLF, the protein stability index was found to be 2.76.

Turning to TLVEAIKEQDGREVDWEYVYGLLF, the protein stability index is 1.42. For the variant TLVEAIKEQDGREVDWEYAYGLLF, the protein stability index is 1.9. For TLVEAIKEQDGREVDWEYSYGLLF, the protein stability index was 2.68.

Regarding TLVEAIKEQDGREVDWEYHYGLLF, the protein stability index turned out to be 2.5.

With TLVEAIKEQDGREVDWEYPYGLLF, the protein stability index is 3.01. As for TLVEAIKEQDGREVDWEYQYGLLF, the figure is 3.44. To TLVEAIKEQDGREVDWEYTYGLLF belongs 2.69; to TLVEAIKEQDGREVDWEYNYGLLF, 2.24. For TLVEAIKEQDGRELDWEYFYGLLF, the protein stability index was 2.28. To TLVEAIKEQDGREKDWEYFYGLLF belongs 1.23. To TLVEAIKEQDGRECDWEYFYGLLF belongs 1.5. To TLVEAIKEQDGRETDWEYFYGLLF belongs 2.36; to TLVEAIKEQDGREFDWEYFYGLLF, 1.51; to TLVEAIKEQDGREEDWEYFYGLLF, 2.37.

For TLVEAIKEQDGREIDWEYFYGLLF, the protein stability index stood at 2.05.

TLVEAIKEQDGREMDWEYFYGLLF: the protein stability index is 1.98.

Consider TLVEAIKEQDGREGDWEYFYGLLF, for which the protein stability index came out at 2.12. As for TLVEAIKEQDGREADWEYFYGLLF, the figure is 2.25; as for TLVEAIKEQDGREPDWEYFYGLLF, 1.76; as for TLVEAIKEQDGRERDWEYFYGLLF, 1.65.

With TLVEAIKEQDGRESDWEYFYGLLF, the protein stability index amounted to 2.24. As to TLVEAIKEQDGREYDWEYFYGLLF, the protein stability index was 2.18. As for TLVEAIKEQDGREDDWEYFYGLLF, the figure is 1.28; as for TLVEAIKEQDGREQDWEYFYGLLF, 1.7; as for TLVEAIKEQDGRENDWEYFYGLLF, 2.36. To TLVEAIKEQDGREHDWEYFYGLLF belongs 1.91. To TLVEAIKEQDGREWDWEYFYGLLF belongs 2.12. Consider TLVEAIKEQDGREVDYEYFYGLLF, for which the protein stability index came to 1.72. As for TLVEAIKEQDGREVDAEYFYGLLF, the figure is 2.06; as for TLVEAIKEQDGREVDIEYFYGLLF, 1.93; as for TLVEAIKEQDGREVDNEYFYGLLF, 2.63.

In the case of TLVEAIKEQDGREVDKEYFYGLLF, the protein stability index came out at 1.87. To TLVEAIKEQDGREVDDEYFYGLLF belongs 2.53; to TLVEAIKEQDGREVDMEYFYGLLF, 2.05.

For TLVEAIKEQDGREVDFEYFYGLLF, the protein stability index stood at 1.93. TLVEAIKEQDGREVDPEYFYGLLF: the protein stability index came to 2.44. As for TLVEAIKEQDGREVDVEYFYGLLF, the figure is 2.61.

For the origin of these results see the supplement of paper PMC10567573.
